Assay results published in paper PMC8560993.

What was measured:
F-actin (rabbit) [1] = target: F-actin (rabbit) (UniProt P68135)
F-actin (rabbit) [2] = target: F-actin (rabbit) (UniProt P68135); remark: listed apart in the source
[3] = target: Regulated thin filaments (TRITC-actin with skeletal tropomyosin and troponin) (rabbit | not stated) (UniProt P68135)
F-actin (rabbit) [4] = target: F-actin (rabbit) (UniProt P68135); remark: listed apart in the source
F-actin (rabbit) [5] = target: F-actin (rabbit) (UniProt P68135); remark: listed apart in the source
F-actin (rabbit) [6] = target: F-actin (rabbit) (UniProt P68135); remark: listed apart in the source

KM: N at half-maximal V(N), in vitro motility assay, control without (-)-blebbistatin (Figure 2D) (F-actin (rabbit) [1]): 16.1
KM: N at half-maximal V(N), in vitro motility assay, with 10 μM (-)-blebbistatin (Figure 2D) (F-actin (rabbit) [1]): 13.3
KM: N at half-maximal V(N), in vitro motility assay, with 50 μM (-)-blebbistatin (Figure 2D) (F-actin (rabbit) [1]): 6.4
KM for F(N): N at half-maximal V(N) against a mechanical load of 0.5 μg/ml α-actinin on the motility surface (F-actin (rabbit) [2]): 16
KM for F(N): N at half-maximal V(N) against a mechanical load of 1.0 μg/ml α-actinin on the motility surface (F-actin (rabbit) [2]): 38
KM for V: N (myosin per μm actin; N equals μg/ml myosin incubated) at half-maximal actin sliding velocity V(N), in vitro motility assay, 50 mM KCl, 30 °C (F-actin (rabbit) [2]): 16
KM for V: N at half-maximal actin sliding velocity V(N), in vitro motility assay, 100 mM KCl, 30 °C (F-actin (rabbit) [2]): 17
KM for v: N at half-maximal actin-activated ATPase activity v(N), measured in a motility flow cell, 50 mM KCl, 30 °C (F-actin (rabbit) [2]): 46
KM for v: N at half-maximal actin-activated ATPase activity v(N), measured in a motility flow cell, 100 mM KCl, 30 °C (F-actin (rabbit) [2]): 23
pseudo KM for pCa50: half the N at which the pCa50 of thin filament sliding velocity saturates, in vitro motility assay, 50 mM KCl [3]: 24
pseudo KM for pCa50: half the N at which the pCa50 of thin filament sliding velocity saturates, in vitro motility assay, 100 mM KCl [3]: 26
inhibition of actin-activated ATPase activity (N = 5, 1.0 μM actin; v from 0.59 to 0.26 μM Pi/min) by the load of 1.0 μg/ml α-actinin on the motility surface (F-actin (rabbit) [4]): 55%
actin activation of the ATPase activity of surface-bound myosin at low N in a motility flow cell (0.15 μM actin, Figure 3) (F-actin (rabbit) [5]): 4 fold
KM: N at half-maximal V(N), in vitro motility assay, control without α-actinin (Figure 5A) (F-actin (rabbit) [6]): 19
Substance: Skeletal muscle myosin (from UniProt Q28641 1-1938) (complex)
